The values that follow come from patent US20160243521A1.

Assay [1] deals with human polyclonal IgG (Gamma-globulin NICHIYAKU, NIHON PHARMACEUTICAL CO., LTD.) (human). In words: column dynamic binding capacity at 5% breakthrough, residence time 3 min (Test example 2); Protein A 35 g/L on cellulose beads made with crosslinking agent EX-314.
Assay [2] shares this target. In words: column dynamic binding capacity at 5% breakthrough, residence time 3 min (Test example 2); Protein A 35 g/L on cellulose beads made without crosslinking agent in the dispersion.

Take “non-orientation-controlled Protein A (from UniProt P38507 37-327) (ligand)”: the 5% DBC at RT of 3 min (g per 1 L of the filling adsorbent) in assay [1] amounted to 65; in assay [2] it was 49.
